The values below come from US12319742 (SHATTUCK LABS, dated 2025).

Assay [1] addresses T1, biotinylated recombinant human TNFRSF25-His tagged (Acro #TN5-H52H3) (human, UniProt Q93038 25-199, biotinylated).
T1 construct: treated as the same protein; also called recombinant biotin-conjugated human TNFRSF25 protein; DR3
T1 sequence (looked up): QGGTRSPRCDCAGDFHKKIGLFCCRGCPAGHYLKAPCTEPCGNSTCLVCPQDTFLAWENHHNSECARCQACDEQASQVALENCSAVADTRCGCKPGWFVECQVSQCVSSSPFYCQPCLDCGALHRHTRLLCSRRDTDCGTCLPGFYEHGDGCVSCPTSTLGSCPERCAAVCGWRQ
The assay is described as follows: BLI/Octet; biotinylated TNFRSF25 on streptavidin sensor, mAb in solution; 1:1 Langmuir model. The text has this: Provided herein are monoclonal and biparatopic antibodies that specifically target human TNFRSF25. The monoclonal antibodies were produced in an engineered CHOK1 cell-line by transfecting the cells with vectors genetically encoding the Heavy and Light chain antibody sequences followed by a single-step affinity-capture chromatography using FcXL resins. The final monoclonal antibody preparation was buffer exchanged into PBS, pH 7.4. Production of biparatopic antibodies followed a two-step process. In the first step of the process, the so called Knob-half (or Hole-half) antibody was produced by transfecting an engineered CHOK1 cell-line with vectors genetically encoding the Knob (or the Hole) Heavy chain and the corresponding Light chain sequences. The CHOK1-cell-harvest from the Knob-half antibody and Hole half-antibody was then purified by Protein A column-based chromatography. In the second step of the process, the two half-antibodies were reassembled into the desired biparatopic format by the use of a mild reduction step followed by quenching the reaction with buffer exchange into PBS, pH 7.4. To detect binding of the antibodies to human TNFRSF25, recombinant biotin-conjugated human TNFRSF25 protein was immobilized onto a streptavidin-coated MSD (Meso Scale Discovery) plate and allowed to bind the anti-TNFRSF25 mAbs in solution. Following a washing step, the bound antibodies were detected using a sulfo-tagged anti-human Fc antibody. The results of these MSD assays are shown in arbitrary units (au) on the y-axis of FIG. 1. To determine the binding affinity of the antibodies to recombinant human TNFRSF25 protein, recombinant biotin-conjugated human TNFRSF25 protein was immobilized onto a streptavidin-coated BLI sensor and allowed to bind the anti-TNFRSF25 mAbs in solution phase. The binding affinity (K_D) was calculated using the on-rates (Ka) and off-rates (Kd) of mAb binding to the target using a 1:1 Langmuir binding model in the ForteBio data analysis software.

In assay [2] the target is T1, biotinylated recombinant human …. The assay is described as follows: MSD competition; TNFRSF25 on plate, antibody titrated, then TL1A-rabbit Fc 0.4 µg/ml as competitor. As to the method:
(§1) Figure 6: FIG. 6. […] Human TNFRSF25 was precoated on MSD assay plates followed by incubating with various concentrations of anti-TNFRSF25 antibodies.

Assay [3] shares this target. The assay is described as follows: BLI/Octet Red 96e; biotinylated TNFRSF25-His on streptavidin biosensor; 600 s association, 600 s dissociation. As to the method:
Figure 4: FIG. 4. TNFRSF25 binding affinity of anti-TNFRSF25 antibodies. BLI assay was performed using the Octet Red 96e instrument. Streptavidin biosensors were loaded with biotinylated recombinant human TNFRSF25-His tagged (Acro #TN5-H52H3) as the ligand. During the association phase, biosensors were incubated with anti-TNFRSF25 antibodies at various concentrations for 600 seconds, followed by a 600-second dissociation phase.
To detect binding of certain whole antibodies to human TNFRSF25, streptavidin biosensors were loaded with biotinylated recombinant human TNFRSF25-His tagged (Acro #TN5-H52H3) as the ligand. During the association phase, biosensors were incubated with anti-TNFRSF25 antibodies at various concentrations for 600 seconds, followed by a 600 second dissociation phase.
In general terms: In BLI a coated tip is dipped into the sample, and binding shifts an interference pattern.

Assay [4] has the same target. The assay is described as follows: MSD competition; scFv supernatant serially diluted on TNFRSF25-coated plate, then TL1A added and the remaining TL1A detected. The text has this:
(FIG. 2A) TNFRSF25 was precoated on MSD assay plates followed by adding scFv supernatant at 2-fold serial-dilutions followed by detection of the myc tag present on the C-terminus of the scFv's. (FIG. 2B) scFv supernatant were serially diluted and added to an MSD-plate pre-coated with TNFRSF25.

For assay [5], the target named is FcγR1 (CD64), BLI reagent (UniProt P12314 16-288, limits assumed). The assay is described as follows: BLI; antibody as analyte at 300 nM on FcγR1.
Chain of FcγR1 (CD64), BLI reagent (P12314 16-288 limits assumed): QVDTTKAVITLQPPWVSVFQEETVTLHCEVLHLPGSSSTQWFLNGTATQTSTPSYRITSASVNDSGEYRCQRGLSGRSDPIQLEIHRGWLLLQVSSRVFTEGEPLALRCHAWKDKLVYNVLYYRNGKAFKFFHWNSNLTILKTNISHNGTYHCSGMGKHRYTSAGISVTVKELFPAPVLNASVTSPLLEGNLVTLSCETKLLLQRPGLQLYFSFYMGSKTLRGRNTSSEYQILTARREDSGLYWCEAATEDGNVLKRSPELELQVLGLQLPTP
The target of assay [6] is T2, biotinylated recombinant human FcRn-His tagged protein (Acro #FCM-H82W7) (human, UniProt P55899 24-297; P61769 21-119, biotinylated).
T2 construct: also called hFcRn; neonatal Fc receptor
T2 sequence (P55899 24-297 limits assumed, chain 1 of 2): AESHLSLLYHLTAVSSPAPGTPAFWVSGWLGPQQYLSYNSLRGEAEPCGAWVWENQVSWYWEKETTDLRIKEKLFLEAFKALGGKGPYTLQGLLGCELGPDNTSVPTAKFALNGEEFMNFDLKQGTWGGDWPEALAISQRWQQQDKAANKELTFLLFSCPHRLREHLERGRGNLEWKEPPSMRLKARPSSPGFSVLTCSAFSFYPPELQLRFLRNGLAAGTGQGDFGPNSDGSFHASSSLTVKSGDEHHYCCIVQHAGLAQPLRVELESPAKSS
T2 sequence (P61769 21-119 limits assumed, chain 2 of 2): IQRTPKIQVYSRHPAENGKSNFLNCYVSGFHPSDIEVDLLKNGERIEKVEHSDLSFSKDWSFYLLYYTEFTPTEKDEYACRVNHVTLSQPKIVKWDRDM
The assay is described as follows: BLI/Octet; biotinylated human FcRn-His on streptavidin biosensor. As to the method:
(§2) Figure 5D: FIG. 5D. FcRn binding kinetics by anti-TNFRSF25 antibodies. BLI assay was performed using the Octet Red 96e instrument. Streptavidin biosensors were loaded with biotinylated recombinant human(h) FcRn-His tagged protein (Acro #FCM-H82W7) as the ligand. During the association phase, biosensors were incubated with anti-DR3 candidate antibodies at various concentrations for 600 seconds, followed by a 600-second dissociation phase.
(§3) To detect binding of certain whole antibodies to the neonatal Fc receptor (FcRn) at neutral and acidic pH conditions, streptavidin biosensors were loaded with biotinylated recombinant human FcRn-His tagged protein (Acro #FCM-H82W7) as the ligand. During the association phase, biosensors were incubated with anti-TNFRSF25 antibodies at various concentrations for 600 seconds, followed by a 600 second dissociation phase.

For assay [7], the target named is T2, biotinylated recombinant human FcRn-His …. The assay is described as follows: BLI/Octet; biotinylated human FcRn-His on streptavidin biosensor; pH 6.0. As to the method: as §2, §3
For assay [8] the target is unchanged. The assay is described as follows: BLI/Octet; biotinylated human FcRn-His on streptavidin biosensor; pH 7.4. As to the method: as §2, §3
Assay [9] concerns the target T1, biotinylated recombinant human …. The assay is described as follows: MSD competition (lower panel); antibody on TNFRSF25-coated plate, wash, then TL1A-rabbit Fc at 0.4 ug/ml, sulfo-tag anti-rabbit detection; raw MSD signal. As to the method: as §1

B1: NH46 (whole antibody) (antibody, human IgG1, kappa, V domains shown)
VH: QVQLVQSGSEVKKPGASVRVSCKVSGSTVKELSMHWVRQAPGKGLEWMGGYDPEDGESIFAQKFQGRVNMTEDRSTDTAYMELSSLRSEDTAVYYCATDLNWEDAFDVWGQGTMVTVSS
VL: QSVLTQPPSVSAAPGQKVTISCSGSGSNIGNYYVAWYQQFPGTAPKLLIYDNNKRPSGIPDRFSGSKSGTSATLGITGLQTGDEADYYCGTWDTSLTAGDIYVFGTGTKVTVLR
One may read the Kd as the constant that tells how readily two partners part at equilibrium. As a reminder, the IC50 is the point on the concentration scale where inhibition reaches its midpoint. What is called koff is the first-order rate constant of dissociation. As usually defined, the kon is a measure of how fast the partners come together. Turning to B1, the Kd in [1] came out at 0.185 nM. In addition, the IC50 in assay [2] amounted to 0.26 nM. Besides, in assay [3], the “Response (RU)” value turned out to be 1.06 RU, the off-rate constant (koff) was found to be 8.54e-05 s⁻¹ and the kon stood at 452000 M⁻¹ s⁻¹.

B2: SL-038 (antibody, human IgG1, kappa, L234A L235A, V domains shown)
VH: EVQLVESGGGLSQPGNSLQLSCEASGFTFSNHDMNWVRQAPGKGLEWVAYISSASGLISYADSVRGRFTISRDNAKNSLFLQMNNLKSEDTAMYYCARDPAYSGNYALDFWGQGTQVTVSS
VL: QPVLTQSPSASASLSGSVKLTCTLSSELSSYTIVWYQQQPDKAPKYVMYLKSDGSHGKGDGIPDRFSGSSSGAHRYLSVSNVQSEDDATYFCGAGYTLAGQYGWVFGSGTKVTVLR
For B2, the equilibrium dissociation constant (Kd) in assay [1] is 3.6 nM.

B3: NH24-47 (scFv, not shown: small tags and cut ends)
scFv: EVQLVESGGGSVQPGGSLRLSCAASGFTFSSYGMSWVRQAPGKGLEWISYISSSGGHTYYADSVKGRFTISRDNAKNSLYLQMNSLRAEDTAVYYCARYSGAFDRWGQGTPVTVSSGGRGSGGGGSGSGGSDIVMTQSPSSLSASVGDRVTITCQASQDISNYLSWYQQKPGKAPKLLISDASNLETGVPSRFSGSGSGTDFTFTISSLQPEDIATYYCQQYDNLPITFGQGTRLEIKR
notes: one of the four variants of group m25; used as unpurified E. coli supernatant; the sheet prints NH24-47; also called NH24-47 scFv
As to B3, the binding result in assay [4] is given as “binds”.

B4: NH24-72 (scFv, not shown: small tags and cut ends)
scFv: EVQLVESGGGSVQPGGSLRLSCAASGFTFSSYGMNWIRQAPGKGLEWITYISSSGGHTYYADSVKGRFTISRDNAKNSLYLQMNSLRAEDTAVYYCARGQGPFEYWGQGTLVTVSSGGRGSGGGGSGSGGSDIVMTQSPSSLSASVGDRVTITCQASQDISNYLSWYQQKPGKAPKLLINDASNLETGVPSRFSGSGSGTDFTFTISSLQPEDIATYYCQQYDNLPITFGQGTRLEIKR
notes: one of the four variants of group m25; used as unpurified E. coli supernatant; the sheet prints NH24-72; also called NH24-72 scFv
As to B4, in assay [4], the binding result is “binds”.

B5: SL-034 (antibody, human IgG1, kappa, L234A L235A, N297A)
heavy: QVQLQQSGPGLVKPSQTLSLTCAISGDSVSGYSAAWNWIRQSPSRGLEWLGRTYYRSKWYNDYAVSVKSRITINPDTSKNQFSLQLNSVTPEDTAVYYCARDYYGSESYYNRGYYYYGMDVWGQGTTVTVSSASTKGPSVFPLAPSSKSTSGGTAALGCLVKDYFPEPVTVSWNSGALTSGVHTFPAVLQSSGLYSLSSVVTVPSSSLGTQTYICNVNHKPSNTKVDKKVEPKSCDKTHTCPPCPAPEAAGGPSVFLFPPKPKDTLMISRTPEVTCVVVDVSHEDPEVKFNWYVDGVEVHNAKTKPREEQYASTYRVVSVLTVLHQDWLNGKEYKCKVSNKALPAPIEKTISKAKGQPREPQVYTLPPSREEMTKNQVSLTCLVKGFYPSDIAVEWESNGQPENNYKTTPPVLDSDGSFFLYSKLTVDKSRWQQGNVFSCSVMHEALHNHYTQKSLSLSPGK
light: AIQLTQSPSSLSASVGDRVTITCRASPGISSALAWYQQKPGKAPKLLMYDESSQESGVPSRFSGSGSGTDFTLTISSLQPEDFATYYCQQFNDYPLTFGGGTKVEIKRTVAAPSVFIFPPSDEQLKSGTASVVCLLNNFYPREAKVQWKVDNALQSGNSQESVTEQDSKDSTYSLSSTLTLSKADYEKHKVYACEVTHQGLSSPVTKSFNRGEC
notes: Same variable regions as SL-033; also called clone 034; L234A/L235A+N297A
For B5, the binding result in [5] is reported as “no binding (tested: 300 nM)”. Also, the Kd in assay [1] was below 1 nM.

B6: SL-061_LS (antibody, human IgG1, kappa)
heavy: QVQLQQSGPGLVKPSQTLSLTCAISGDSVSGYSAAWNWIRQSPSRGLEWLGRTYYRSKWYNDYAVSVKSRITINPDTSKNQFSLQLNSVTPEDTAVYYCARDYYGSESYYNRGYYYYGMDVWGQGTTVTVSSASTKGPSVFPLAPSSKSTSGGTAALGCLVKDYFPEPVTVSWNSGALTSGVHTFPAVLQSSGLYSLSSVVTVPSSSLGTQTYICNVNHKPSNTKVDKKVEPKSCDKTHTCPPCPAPEAAGAPSVFLFPPKPKDTLMISRTPEVTCVVVDVSHEDPEVKFNWYVDGVEVHNAKTKPREEQYNSTYRVVSVLTVLHQDWLNGKEYKCKVSNKALPAPIEKTISKAKGQPREPQVYTLPPSREEMTKNQVSLTCLVKGFYPSDIAVEWESNGQPENNYKTTPPVLDSDGSFFLYSKLTVDKSRWQQGNVFSCSVLHEALHSHYTQKSLSLSPGK
light: AIQLTQSPSSLSASVGDRVTITCRASPGISSALAWYQQKPGKAPKLLMYDESSQESGVPSRFSGSGSGTDFTLTISSLQPEDFATYYCQQFNDYPLTFGGGTKVEIKRTVAAPSVFIFPPSDEQLKSGTASVVCLLNNFYPREAKVQWKVDNALQSGNSQESVTEQDSKDSTYSLSSTLTLSKADYEKHKVYACEVTHQGLSSPVTKSFNRGEC
notes: SL-061 with LS half-life extension changes in the Fc
For the molecule B6, the “fold improvement in binding affinity at pH 6.0 compared to pH 7.4” value in assay [6] was around 10 fold. For the same molecule, in assay [7], the Kd was determined as 0.879 nM, the koff is 0.000181 s⁻¹ and the kon worked out at 206000 M⁻¹ s⁻¹. Besides, in [8], the Kd turned out to be 6.78 nM, the koff was 0.00144 s⁻¹ and the kon was found to be 213000 M⁻¹ s⁻¹. Moreover, the “IC50 (read off the curve)” value in assay [9] is around 0.2 nM.

B7: NH24 (whole antibody) (antibody, human IgG1, kappa, V domains shown)
VH: EVQLVESGGGSVQPGGSLRLSCAASGFTFSSYGMSWIRQAPGKGLEWISYISSSGGHTYYADSVKGRFTISRDNAKNSLYLQMNSLRAEDTAVYYCARGSGSFDYWGQGTLVTVSS
VL: DIVMTQSPSSLSASVGDRVTITCQASQDITNYLSWYQQKPGKAPKLLISDASNLETGIPSRFSGSGSGTDFTFTISSLQPEDIATYYCQQYDTLPITFGQGTRLEIKR
For B7, the Kd in assay [1] stood at 0.59 nM. In assay [2], the IC50 was 39.4 nM. In assay [3], the “Response (RU)” value came out at 0.73 RU, the koff is 0.000742 s⁻¹ and the kon was found to be 1.26e+06 M⁻¹ s⁻¹.
